The results in this text go back to publication PMC8628261 (Cell reports, 2021).

This data set deals with the molecule itself. Description: AUC.

B1: mouse Kirrel2 ectodomain, wild type (domain or fragment, UniProt Q7TSU7 20-507, looked up)
chain: SPHFLQQPEDMVVLLGEEARLPCALGAYRGLVQWTKDGLALGGERDLPGWSRYWISGNSASGQHDLHIKPVELEDEASYECQASQAGLRSRPAQLHVMVPPEAPQVLGGPSVSLVAGVPGNLTCRSRGDSRPAPELLWFRDGIRLDGSSFHQTTLKDKATGTVENTLFLTPSSHDDGATLICRARSQALPTGRDTAVTLSLQYPPMVTLSAEPQTVQEGEKVTFLCQATAQPPVTGYRWAKGGSPVLGARGPRLEVVADATFLTEPVSCEVSNAVGSANRSTALEVLYGPILQAKPKSVSVDVGKDASFSCVWRGNPLPRITWTRMGGSQVLSSGPTLRLPSVALEDAGDYVCRAEPRRTGLGGGKAQARLTVNAPPVVTALQPAPAFLRGPARLQCVVFASPAPDSVVWSWDEGFLEAGSLGRFLVEAFPAPEVEGGQGPGLISVLHISGTQESDFTTGFNCSARNRLGEGRVQIHLGRRDLLPTVR
In general, Kd refers to a measure of binding affinity in units of concentration. Low values mean tighter binding, high ones weaker binding. For orientation: stoichiometry N means the number of molecules, sites or subunits per partner or assembly. For B1, the Kd came out at 900 nM and the “stoichiometry N” value was 2.

B2: mouse Kirrel3 ectodomain, wild type (domain or fragment, UniProt Q8BR86 22-535, looked up)
chain: LQKRGCCLVLGYMAKDKFRRMNEGQVYSFSQQPQDQVVVSGQPVTLLCAIPEYDGFVLWIKDGLALGVGRDLSSYPQYLVVGNHLSGEHHLKILRAELQDDAVYECQAIQAAIRSRPARLTVLVPPDDPIILGGPVISLRAGDPLNLTCHADNAKPAASIIWLRKGEVINGATYSKTLLRDGKRESIVSTLFISPGDVENGQSIVCRATNKAIPGGKETSVTIDIQHPPLVNLSVEPQPVLEDNIVTFHCSAKANPAVTQYRWAKRGHIIKEASGELYRTTVDYTYFSEPVSCEVTNALGSTNLSRTVDVYFGPRMTSEPQSLLVDLGSDAVFSCAWIGNPSLTIVWMKRGSGVVLSNEKTLTLKSVRQEDAGKYVCRAVVPRVGAGEREVTLTVNGPPIISSTQTQHALHGEKGQIKCFIRSTPPPDRIAWSWKENVLESGTSGRYTVETVNTEEGVISTLTISNIVRADFQTIYNCTAWNSFGSDTEIIRLKEQGSEMKSGAGLEAESVPMA
On to B2, for which binding was put at a Kd of 210 nM and the “stoichiometry N” value was 2.
